# Data reported in paper PMC10397247.
# T1: 4H1842-AA
# T1 chain: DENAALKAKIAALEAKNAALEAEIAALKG
# T2: 4H3165-AA
# T2 chain: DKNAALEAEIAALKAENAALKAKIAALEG
# T3: 4H570-AA
# T3 chain: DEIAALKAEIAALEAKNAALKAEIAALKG
# T4: 4H891-AA
# T4 chain: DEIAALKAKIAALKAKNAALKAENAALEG
# T5: 4H1579-AA
# T5 chain: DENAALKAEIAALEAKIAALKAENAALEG
# T6: 4H3130-AA
# T6 chain: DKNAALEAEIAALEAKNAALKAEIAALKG
# T7: 4H3410-AA
# T7 chain: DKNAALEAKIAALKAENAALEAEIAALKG
# T8: 4H310-AA
# T8 chain: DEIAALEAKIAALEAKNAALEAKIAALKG
# T9: 4H2253-AA
# T9 chain: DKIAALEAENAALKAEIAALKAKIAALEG
# T10: 4H3697-AA
# T10 chain: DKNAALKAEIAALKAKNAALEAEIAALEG
# T11: 4H2162-AA
# T11 chain: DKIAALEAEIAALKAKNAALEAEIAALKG
# T12: 4H2473-AA
# T12 chain: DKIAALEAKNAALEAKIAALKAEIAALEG
# T13: 4H3016-AA
# T13 chain: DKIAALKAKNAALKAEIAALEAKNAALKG
# T14: 4H909-AA
# T14 chain: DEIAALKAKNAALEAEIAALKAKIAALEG
# T15: 4H2389-AA
# T15 chain: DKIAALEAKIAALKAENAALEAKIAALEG
# T16: 4H2109-AA
# T16 chain: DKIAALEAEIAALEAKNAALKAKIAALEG
# T17: 4H745-AA
# T17 chain: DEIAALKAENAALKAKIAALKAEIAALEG
# T18: 4H710-AA
# T18 chain: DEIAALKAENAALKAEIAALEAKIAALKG
# T19: 4H3590-AA
# T19 chain: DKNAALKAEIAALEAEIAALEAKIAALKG
# T20: 4H171-AA
# T20 chain: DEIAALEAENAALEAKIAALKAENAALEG
# T21: 4H2438-AA
# T21 chain: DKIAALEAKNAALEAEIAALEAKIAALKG
# T22: 4H3753-AA
# T22 chain: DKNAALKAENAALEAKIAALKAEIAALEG
# T23: 4H850-AA
# T23 chain: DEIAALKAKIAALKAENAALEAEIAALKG
# T24: 4H2725-AA
# T24 chain: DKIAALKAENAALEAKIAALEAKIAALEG
# T25: 4H3009-AA
# T25 chain: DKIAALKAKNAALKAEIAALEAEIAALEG
# T26: 4H2274-AA
# T26 chain: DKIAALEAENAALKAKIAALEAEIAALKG
# T27: 4H1597-AA
# T27 chain: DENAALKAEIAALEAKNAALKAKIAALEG
# T28: 4H3120-AA
# T28 chain: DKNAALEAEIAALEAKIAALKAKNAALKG
# T29: 4H2698-AA
# T29 chain: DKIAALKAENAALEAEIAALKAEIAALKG
# T30: 4H536-AA
# T30 chain: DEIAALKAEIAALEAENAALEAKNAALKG
# T31: 4H485-AA
# T31 chain: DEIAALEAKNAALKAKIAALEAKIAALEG
# T32: 4H3381-AA
# T32 chain: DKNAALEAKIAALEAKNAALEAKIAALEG
# T33: 4H629-AA
# T33 chain: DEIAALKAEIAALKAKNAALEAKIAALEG
# T34: 4H2330-AA
# T34 chain: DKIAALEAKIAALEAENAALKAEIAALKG
# T35: 4H1877-AA
# T35 chain: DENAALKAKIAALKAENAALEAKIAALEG
# T36: 4H2865-AA
# T36 chain: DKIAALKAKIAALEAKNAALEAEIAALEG
# T37: 4H1864-AA
# T37 chain: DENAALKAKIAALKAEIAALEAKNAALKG
# T38: 4H94-AA
# T38 chain: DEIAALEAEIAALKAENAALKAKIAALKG
# T39: 4H1478-AA
# T39 chain: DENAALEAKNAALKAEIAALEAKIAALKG
# T40: 4H1626-AA
# T40 chain: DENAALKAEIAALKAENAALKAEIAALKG
# T41: 4H3395-AA
# T41 chain: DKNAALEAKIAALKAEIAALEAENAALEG
# T42: 4H797-AA
# T42 chain: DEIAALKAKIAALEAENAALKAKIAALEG
# T43: 4H174-AA
# T43 chain: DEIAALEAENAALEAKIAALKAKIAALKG
# T44: 4H2649-AA
# T44 chain: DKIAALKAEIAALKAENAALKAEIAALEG
# T45: 4H458-AA
# T45 chain: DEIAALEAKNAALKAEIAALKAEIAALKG
# T46: 4H3865-AA
# T46 chain: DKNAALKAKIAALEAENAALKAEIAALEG
# T47: 4H930-AA
# T47 chain: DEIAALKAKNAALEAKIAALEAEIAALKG
# Tests used:
# Assay in all cases: two-hybrid library CCmax;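 note: natural log of median RNA to DNA barcode read ratio; higher means stronger binding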
# 4H1842-AA = molecular target: T1, 4H1842-AA; details: mean of both orientations
# 4H3165-AA = molecular target: T2, 4H3165-AA; details: mean of both orientations
# 4H570-AA = molecular target: T3, 4H570-AA; details: mean of both orientations
# 4H891-AA = molecular target: T4, 4H891-AA; details: mean of both orientations
# 4H1579-AA = molecular target: T5, 4H1579-AA; details: mean of both orientations
# 4H3130-AA = molecular target: T6, 4H3130-AA; details: mean of both orientations
# 4H3410-AA = molecular target: T7, 4H3410-AA; details: mean of both orientations
# 4H310-AA = molecular target: T8, 4H310-AA; details: mean of both orientations
# 4H2253-AA = molecular target: T9, 4H2253-AA; details: mean of both orientations
# 4H3697-AA = molecular target: T10, 4H3697-AA; details: mean of both orientations
# 4H2162-AA = molecular target: T11, 4H2162-AA; details: mean of both orientations
# 4H2473-AA = molecular target: T12, 4H2473-AA; details: mean of both orientations
# 4H3016-AA = molecular target: T13, 4H3016-AA; details: mean of both orientations
# 4H909-AA = molecular target: T14, 4H909-AA; details: mean of both orientations
# 4H2389-AA = molecular target: T15, 4H2389-AA; details: mean of both orientations
# 4H2109-AA = molecular target: T16, 4H2109-AA; details: mean of both orientations
# 4H745-AA = molecular target: T17, 4H745-AA; details: mean of both orientations
# 4H710-AA = molecular target: T18, 4H710-AA
# 4H3590-AA = molecular target: T19, 4H3590-AA; details: mean of both orientations
# 4H171-AA = molecular target: T20, 4H171-AA; details: mean of both orientations
# 4H2438-AA = molecular target: T21, 4H2438-AA; details: mean of both orientations
# 4H3753-AA = molecular target: T22, 4H3753-AA; details: mean of both orientations
# 4H850-AA = molecular target: T23, 4H850-AA; details: mean of both orientations
# 4H2725-AA = molecular target: T24, 4H2725-AA; details: mean of both orientations
# 4H3009-AA = molecular target: T25, 4H3009-AA; details: mean of both orientations
# 4H2274-AA = molecular target: T26, 4H2274-AA; details: mean of both orientations
# 4H1597-AA = molecular target: T27, 4H1597-AA; details: mean of both orientations
# 4H3120-AA = molecular target: T28, 4H3120-AA; details: mean of both orientations
# 4H2698-AA = molecular target: T29, 4H2698-AA; details: mean of both orientations
# 4H536-AA = molecular target: T30, 4H536-AA; details: mean of both orientations
# 4H485-AA = molecular target: T31, 4H485-AA; details: mean of both orientations
# 4H3381-AA = molecular target: T32, 4H3381-AA; details: mean of both orientations
# 4H629-AA = molecular target: T33, 4H629-AA; details: mean of both orientations
# 4H2330-AA = molecular target: T34, 4H2330-AA; details: mean of both orientations
# 4H1877-AA = molecular target: T35, 4H1877-AA; details: mean of both orientations
# 4H2865-AA = molecular target: T36, 4H2865-AA; details: mean of both orientations
# 4H1864-AA = molecular target: T37, 4H1864-AA; details: mean of both orientations
# 4H94-AA = molecular target: T38, 4H94-AA; details: mean of both orientations
# 4H1478-AA = molecular target: T39, 4H1478-AA
# 4H1626-AA = molecular target: T40, 4H1626-AA; details: mean of both orientations
# 4H3395-AA = molecular target: T41, 4H3395-AA; details: mean of both orientations
# 4H797-AA = molecular target: T42, 4H797-AA; details: mean of both orientations
# 4H174-AA = molecular target: T43, 4H174-AA; details: mean of both orientations
# 4H2649-AA = molecular target: T44, 4H2649-AA; details: mean of both orientations
# 4H458-AA = molecular target: T45, 4H458-AA; details: mean of both orientations
# 4H3865-AA = molecular target: T46, 4H3865-AA; details: mean of both orientations
# 4H930-AA = molecular target: T47, 4H930-AA; details: mean of both orientations
binder,measurement,setting,value
DENAALEAKNAALKAEIAALEAKIAALKG [4H1478-AA],interaction score,4H1842-AA,-1.06
same,interaction score,4H3165-AA,-1.68
same,interaction score,4H570-AA,-1.51
same,interaction score,4H891-AA,-1.45
same,interaction score,4H1579-AA,-0.103
same,interaction score,4H3130-AA,-0.211
same,interaction score,4H3410-AA,-1
same,interaction score,4H310-AA,-0.927
same,interaction score,4H2253-AA,-0.889
same,interaction score,4H3697-AA,-1.54
same,interaction score,4H2162-AA,-1.13
same,interaction score,4H2473-AA,2.04
same,interaction score,4H3016-AA,-1.29
same,interaction score,4H909-AA,-0.497
same,interaction score,4H2389-AA,0.0289
same,interaction score,4H2109-AA,-0.882
same,interaction score,4H745-AA,2.14
same,interaction score,4H710-AA,-0.15
same,interaction score,4H3590-AA,0.946
same,interaction score,4H171-AA,0.9
same,interaction score,4H2438-AA,-0.717
same,interaction score,4H3753-AA,2.25
same,interaction score,4H850-AA,0.0104
same,interaction score,4H2725-AA,1.78
same,interaction score,4H3009-AA,0.472
same,interaction score,4H2274-AA,-0.761
same,interaction score,4H1597-AA,-0.494
same,interaction score,4H3120-AA,-0.624
same,interaction score,4H2698-AA,1.64
same,interaction score,4H536-AA,-1.16
same,interaction score,4H485-AA,-0.796
same,interaction score,4H3381-AA,-1.47
same,interaction score,4H629-AA,-1.23
same,interaction score,4H2330-AA,-1.56
same,interaction score,4H1877-AA,-0.558
same,interaction score,4H2865-AA,-1.39
same,interaction score,4H1864-AA,1.68
same,interaction score,4H94-AA,-1.45
same,interaction score,4H1478-AA,0.0991
same,interaction score,4H1626-AA,-1.52
same,interaction score,4H3395-AA,1.1
same,interaction score,4H797-AA,-1.28
same,interaction score,4H174-AA,1.4
same,interaction score,4H2649-AA,-1.48
same,interaction score,4H458-AA,-0.241
same,interaction score,4H3865-AA,-1.31
same,interaction score,4H930-AA,-0.754
